Positions count from the first letter of the chain named.
B1: murine monoclonal antibody 3S193 (antibody, V domains shown)
VH: EVKLVESGGGLVQPGGSLKLSCATSGFTFSDYYMYWVRQTPEKRLEWVAYMSNVGAITDYPDTVKGRFTISRDNAKSTLYLQMSRLRSEDTAMYYCARGTRDGSWFAYWGQGTLVTVSA
VL: DVLMTQTPLSLPVSLGDQASISCRSSQRIVHSNGNTYLEWYLQKPGQSPKLLIYKVSNRFSGVPDRFSGSGSGTDFTLKISRVEAEDLGVYYCFQGSHVPFTFGSGTKLEIK
notes: The N-terminal residues of the VK in the listing are dictated by the VK10BACK primer; also called murine 3S193
B2: humanized 3S193 antibody HuVH/HuVK (antibody, V domains shown)
VH: EVQLVESGGGVVQPGRSLRLSCSSSGFTFSDYYMYWVRQAPGKGLEWVAYMSNVGAITDYPDTVKGRFTISRDNSKNTLFLQMDSLRPEDTGVYFCARGTRDGSWFAYWGQGTPVTVSS
VL: DIQMTQSPSSLSASVGDRVTITCRSSQRIVHSNGNTYLEWYQQTPGKAPKLLIYKVSNRFSGVPSRFSGSGSGTDYTFTISSLQPEDIATYYCFQGSHVPFTFGQGTKLQIT
notes: also called 3S193 HuVH/HuVK
B3: humanized 3S193 antibody HuVHA/HuVKF (antibody, V domains shown)
VH: B2 VH with S75A
VL: B2 VL with Y76F
B4: humanized 3S193 antibody HuVHAS/HuVKF (antibody, V domains shown)
VH: B2 VH with S75A, N77S
VL: B2 VL with Y76F
B5: humanized 3S193 antibody HuVHASY/HuVKF (antibody, V domains shown)
VH: B2 VH with S75A, N77S, F80Y
VL: B2 VL with Y76F
notes: also called 3S193HuVHASY

Experiments:
[1] = molecular target: T1, HSA (UniProt P02768 25-609); assay: ELISA, HSA dried on Terasaki plates, Experiment A
Method: (§1) The plates were blocked for 1 hour at room temperature using PBS/3% BSA and washed three times with PBS. Serial dilutions of test antibodies in PBS/3% BSA were applied to the wells and the plates incubated for 1 hour before washing as above. Suitable anti-murine antibody or anti-human antibody alkaline phosphatase-conjugated antibodies were diluted in PBS/3% BSA and incubated in the wells for 1.5 h. After washing, colour was developed using diethanolamine and p-nitrophenyl phosphate at 37° C. for about 20 min and the absorbances measured at 405 mn.

[2] = molecular target: T1, HSA; assay: ELISA, HSA dried on Terasaki plates, Experiment B
Method: as §1

T1 sequence (P02768 25-609): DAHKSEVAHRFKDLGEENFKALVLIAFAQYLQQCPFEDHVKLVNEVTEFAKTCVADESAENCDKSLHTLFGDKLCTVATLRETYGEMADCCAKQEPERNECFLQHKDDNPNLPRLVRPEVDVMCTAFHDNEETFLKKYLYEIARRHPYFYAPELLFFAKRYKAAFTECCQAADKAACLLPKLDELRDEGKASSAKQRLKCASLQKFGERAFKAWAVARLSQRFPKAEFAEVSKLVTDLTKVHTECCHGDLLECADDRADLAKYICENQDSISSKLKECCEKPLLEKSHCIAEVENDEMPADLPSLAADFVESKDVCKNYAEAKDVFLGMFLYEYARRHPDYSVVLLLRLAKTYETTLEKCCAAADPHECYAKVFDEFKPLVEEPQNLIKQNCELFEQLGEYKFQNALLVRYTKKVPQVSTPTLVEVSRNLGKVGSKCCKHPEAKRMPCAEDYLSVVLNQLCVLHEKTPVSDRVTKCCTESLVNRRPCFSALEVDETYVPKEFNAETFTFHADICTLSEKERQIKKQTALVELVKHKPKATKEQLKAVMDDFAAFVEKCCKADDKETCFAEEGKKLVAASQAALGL

Row | Binder | binding result [1] | binding result [2]
1 | B1 | no binding (tested: 100 µg/ml (highest concentration tested)) | –
2 | B2 | no binding (tested: 100 µg/ml (highest concentration tested)) | –
3 | B3 | – | no binding (tested: 100 µg/ml (highest concentration tested))
4 | B4 | – | no binding (tested: 100 µg/ml (highest concentration tested))
5 | B5 | – | no binding (tested: 100 µg/ml (highest concentration tested))
